The values that follow come from the Human Domainome abundance scans (Beltran et al. 2025).

± gives the uncertainty stated by the source.

The labels stand for the following.
B1: Protein piccolo, residues 1058 to 1114; numbered along this chain, Q9Y6V0 (parent)
chain: TCPLCKTELNIGSKDPPNFNTCTECKNQVCNLCGFNPTPHLTEIQEWLCLNCQTQRA

Variants of B1 are the subject of the data set. The data set is described as follows: abundance fitness (aPCA) (normalised: wild type 0, dead -1); higher = more abundant; growth selection in yeast, the domain comes from the species named. The settings on record: Homo sapiens.
With TCPLCKTELNIGSKDPPNFNTCTECKNQVCNLCGWNPTPHLTEIQEWLCLNCQTQRA [F35W], the abundance fitness was -0.288 ± 0.11.

As to TCPLCKTELNIGSKDPPNFNTCTECKNQVCNLCGGNPTPHLTEIQEWLCLNCQTQRA [F35G], the abundance fitness is 0.175 ± 0.096.

For the variant TCPLCKTELNIGSKDPPNFNTCTECKNQVCNLRGFNPTPHLTEIQEWLCLNCQTQRA [C33R], the abundance fitness was -0.729 ± 0.1.

For the variant TCPLCKTELNIGSKDPPNFNTCTECKNQVCNLCEFNPTPHLTEIQEWLCLNCQTQRA [G34E], the abundance fitness is -0.292 ± 0.17.

As for TCPLCKTELNIGSKDPPNFNTCTECKNQVCNLCGFNPTPHLTEIQEWLCLNCQFQRA [T54F], the abundance fitness is -0.79 ± 0.16.

On to TCPLCKTELNIGSKDPPNFNTCTECKNQVCNLCGFNPTPHLTEIQEWLCLNCQQQRA [T54Q], for which the abundance fitness came out at 0.214 ± 0.13.

Consider TCPLCKTELNIGSKDPPNFNTCTECKNQVCNLCGFNPTPHLTEIQEWLCLNCQMQRA [T54M], for which the abundance fitness is -0.602 ± 0.17.

TCPLCKTELNIGSKDPPNFNTCTECKNQVCNLCGFNPTPHLTEIQEWLCLNCQLQRA [T54L]: the abundance fitness is -0.531 ± 0.1.

With TCPLCKTELNIGSKDPPNFNTCTECKNQVCCLCGFNPTPHLTEIQEWLCLNCQTQRA [N31C], the abundance fitness is 0.093 ± 0.11.

Regarding TCPLLKTELNIGSKDPPNFNTCTECKNQVCNLCGFNPTPHLTEIQEWLCLNCQTQRA [C5L], the abundance fitness was -1.17 ± 0.087.

On to TCPLSKTELNIGSKDPPNFNTCTECKNQVCNLCGFNPTPHLTEIQEWLCLNCQTQRA [C5S], for which the abundance fitness is -0.68 ± 0.072.

On to TCPLCKTELNIGSKDKPNFNTCTECKNQVCNLCGFNPTPHLTEIQEWLCLNCQTQRA [P16K], for which the abundance fitness was -0.248 ± 0.14.

Consider TCPLCKTELNIGSKDPPNFNTCTECKNQVCNLCGFNPTPHCTEIQEWLCLNCQTQRA [L41C], for which the abundance fitness was determined as 0.004 ± 0.14.

As for TCPLCKTELNIGSKDPPNFNTCTECKNQVCNLCGFNPTPHDTEIQEWLCLNCQTQRA [L41D], the abundance fitness came out at 0.004 ± 0.19.

Consider TCPLCKTELNIGSKDPPNFNTCTECKNQVCNLCGFNPTPHYTEIQEWLCLNCQTQRA [L41Y], for which the abundance fitness was found to be 0.081 ± 0.18.

Consider TCPLCKTELNIGSKDPPNFNTCTECKNQVCNLCGFNPTPHTTEIQEWLCLNCQTQRA [L41T], for which the abundance fitness came out at 0.109 ± 0.13.

In the case of TCPLCKTELAIGSKDPPNFNTCTECKNQVCNLCGFNPTPHLTEIQEWLCLNCQTQRA [N10A], the abundance fitness was 0.041 ± 0.096.

For the variant TCPLCKTELNIGSKDPPNFNTTTECKNQVCNLCGFNPTPHLTEIQEWLCLNCQTQRA [C22T], the abundance fitness is -0.736 ± 0.15.

Turning to TCPLCKTELNIGSKDPPNFNTFTECKNQVCNLCGFNPTPHLTEIQEWLCLNCQTQRA [C22F], the abundance fitness was -0.958 ± 0.18.

Take TCPLCKTELNIGSKDPPNFNTCTECKNQVCNLCGFNRTPHLTEIQEWLCLNCQTQRA [P37R]: the abundance fitness was found to be 0.032 ± 0.091.

As to TCPLCKTELNIGSKDPPNFNTCTECKNQVCNLCGFNGTPHLTEIQEWLCLNCQTQRA [P37G], the abundance fitness is 0.039 ± 0.087.

With TCPLCKTELNIGSKDPPNFNTCTECKNQVCNLCGFNLTPHLTEIQEWLCLNCQTQRA [P37L], the abundance fitness is -0.023 ± 0.094.

Take TCPLCKTELNIGSKDPPNFNTCTECKNQVCNLCGFNPTPHLVEIQEWLCLNCQTQRA [T42V]: the abundance fitness came to 0.073 ± 0.14.

TCPLCKTELNIGSKDPPNFNTCTECKNQVCNLCGFNPTPHLQEIQEWLCLNCQTQRA [T42Q]: the abundance fitness amounted to 0.062 ± 0.16.

For the variant TCPLCKTELNIGSKDPPNFNTCTECKNQVCNLCGFNPIPHLTEIQEWLCLNCQTQRA [T38I], the abundance fitness was -0.143 ± 0.16.

Turning to TCPLCKTELNIGSKDPPNFNTCTECKNQVCNLCGFNPTPHLTEQQEWLCLNCQTQRA [I44Q], the abundance fitness worked out at 0.074 ± 0.2.

TCPLCKTELNIGSKDPPNFNTCTECKNQVCNLCGFNPTPHLTEDQEWLCLNCQTQRA [I44D]: the abundance fitness was -0.38 ± 0.39.

As to TCPLCKTELNIGSKDPPNFNTCTACKNQVCNLCGFNPTPHLTEIQEWLCLNCQTQRA [E24A], the abundance fitness is -0.061 ± 0.086.

For TCPLCKTELNIGSKDPPNFNTCTHCKNQVCNLCGFNPTPHLTEIQEWLCLNCQTQRA [E24H], the abundance fitness is -0.058 ± 0.13.

Consider TCPLCKTELNIGSKDPPNFNTCTWCKNQVCNLCGFNPTPHLTEIQEWLCLNCQTQRA [E24W], for which the abundance fitness is -0.198 ± 0.083.

On to TCPLCKTELNIGSKDPPNFNTCTECKNPVCNLCGFNPTPHLTEIQEWLCLNCQTQRA [Q28P], for which the abundance fitness was -0.099 ± 0.14.

As for TCPLCKTELNIGSKDPPNFNTCTECKNWVCNLCGFNPTPHLTEIQEWLCLNCQTQRA [Q28W], the abundance fitness is -0.115 ± 0.11.

For the variant TCPLCKTELNIGSKTPPNFNTCTECKNQVCNLCGFNPTPHLTEIQEWLCLNCQTQRA [D15T], the abundance fitness is -0.013 ± 0.17.

Consider TCPLCKTELNIGSKPPPNFNTCTECKNQVCNLCGFNPTPHLTEIQEWLCLNCQTQRA [D15P], for which the abundance fitness is -0.273 ± 0.16.

Regarding TCPLCKTELNIGSKDPPNFNDCTECKNQVCNLCGFNPTPHLTEIQEWLCLNCQTQRA [T21D], the abundance fitness is -0.078 ± 0.19.

For TCPLCKTELNIGSKDPPNFNHCTECKNQVCNLCGFNPTPHLTEIQEWLCLNCQTQRA [T21H], the abundance fitness was 0.013 ± 0.19.

As for TCPLCKTELNIGSKDPPNFNMCTECKNQVCNLCGFNPTPHLTEIQEWLCLNCQTQRA [T21M], the abundance fitness is 0.298 ± 0.14.

With TCPLCKTELNIGSKDPPNFNGCTECKNQVCNLCGFNPTPHLTEIQEWLCLNCQTQRA [T21G], the abundance fitness was -0.053 ± 0.099.

For the variant TCPLCKTELNIGSKDPPNFRTCTECKNQVCNLCGFNPTPHLTEIQEWLCLNCQTQRA [N20R], the abundance fitness was determined as 0.078 ± 0.08.

On to TCPLCKTELNIGSKDPPNFATCTECKNQVCNLCGFNPTPHLTEIQEWLCLNCQTQRA [N20A], for which the abundance fitness is -0.001 ± 0.1.

In the case of TCPLCKTELNIGSKDPPNFNTCTECCNQVCNLCGFNPTPHLTEIQEWLCLNCQTQRA [K26C], the abundance fitness was -0.026 ± 0.16.

As for TCPLCKTELNIGSKDPPNFNTCTECYNQVCNLCGFNPTPHLTEIQEWLCLNCQTQRA [K26Y], the abundance fitness was determined as 0.148 ± 0.16.

Take TCPLCKTEENIGSKDPPNFNTCTECKNQVCNLCGFNPTPHLTEIQEWLCLNCQTQRA [L9E]: the abundance fitness was -0.11 ± 0.11.

With TCPLCKTEKNIGSKDPPNFNTCTECKNQVCNLCGFNPTPHLTEIQEWLCLNCQTQRA [L9K], the abundance fitness amounted to 0.026 ± 0.12.

Regarding TCPLCKTEVNIGSKDPPNFNTCTECKNQVCNLCGFNPTPHLTEIQEWLCLNCQTQRA [L9V], the abundance fitness was -0.056 ± 0.077.

For the variant TCPLCKTELNIFSKDPPNFNTCTECKNQVCNLCGFNPTPHLTEIQEWLCLNCQTQRA [G12F], the abundance fitness is -0.203 ± 0.21.
